Bridges are numbered along the chain shown (N, C = ends). [ ]: non-standard residue; d: D form. 2Nal = N[C@@H](Cc1ccc2ccccc2c1)C(=O)O; Cit = NC(=O)NCCC[C@H](N)C(=O)O
The binders below were run against human CXCR4 (human, UniProt P61073 1-352) (assay: cell-based or functional assay).
Sequence of human CXCR4 (P61073 whole entry): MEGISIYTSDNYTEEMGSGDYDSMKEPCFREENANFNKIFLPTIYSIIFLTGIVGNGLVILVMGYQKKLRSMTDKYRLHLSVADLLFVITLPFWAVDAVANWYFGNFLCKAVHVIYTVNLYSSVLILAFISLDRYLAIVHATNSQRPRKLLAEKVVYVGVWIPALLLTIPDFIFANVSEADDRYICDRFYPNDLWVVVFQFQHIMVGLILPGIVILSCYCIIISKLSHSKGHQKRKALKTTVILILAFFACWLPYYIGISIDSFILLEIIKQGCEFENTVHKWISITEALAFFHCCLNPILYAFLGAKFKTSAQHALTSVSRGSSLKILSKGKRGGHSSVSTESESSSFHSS

Row | IC50 (nM) Ca2+ assay (method 2) | IC50 (nM) Ca2+ assay (method 1) | Binder
1 | 0.74 nM |  | cyclo(YR[Cit]CRG[dP]TR[2Nal]CYQK[dP]P) (disulfide 4-11; SMILES C[C@@H](O)[C@@H]1NC(=O)[C@H]2CCCN2C(=O)CNC(=O)[C@H](CCCNC(=N)N)NC(=O)[C@@H]2CSSC[C@H](NC(=O)[C@H](Cc3ccc4ccccc4c3)NC(=O)[C@H](CCCNC(=N)N)NC1=O)C(=O)N[C@@H](Cc1ccc(O)cc1)C(=O)N[C@@H](CCC(N)=O)C(=O)N[C@@H](CCCCN)C(=O)N1CCC[C@@H]1C(=O)N1CCC[C@H]1C(=O)N[C@@H](Cc1ccc(O)cc1)C(=O)N[C@@H](CCCNC(=N)N)C(=O)N[C@@H](CCCNC(N)=O)C(=O)N2) [Example 56]
2 | 3.9 nM |  | cyclo(IR[Cit]CRG[dP]RR[2Nal]CYQK[dP]P) (disulfide 4-11; SMILES CC[C@H](C)[C@@H]1NC(=O)[C@@H]2CCCN2C(=O)[C@H]2CCCN2C(=O)[C@H](CCCCN)NC(=O)[C@H](CCC(N)=O)NC(=O)[C@H](Cc2ccc(O)cc2)NC(=O)[C@@H]2CSSC[C@H](NC(=O)[C@H](CCCNC(N)=O)NC(=O)[C@H](CCCNC(=N)N)NC1=O)C(=O)N[C@@H](CCCNC(=N)N)C(=O)NCC(=O)N1CCC[C@@H]1C(=O)N[C@@H](CCCNC(=N)N)C(=O)N[C@@H](CCCNC(=N)N)C(=O)N[C@@H](Cc1ccc3ccccc3c1)C(=O)N2) [Example 65]
3 | 0.18 nM |  | cyclo(YR[Cit]CRG[dP]RR[2Nal]CYQQ[dP]P) (disulfide 4-11; SMILES N=C(N)NCCC[C@@H]1NC(=O)[C@@H]2CSSC[C@H](NC(=O)[C@H](Cc3ccc4ccccc4c3)NC(=O)[C@H](CCCNC(=N)N)NC(=O)[C@H](CCCNC(=N)N)NC(=O)[C@H]3CCCN3C(=O)CNC1=O)C(=O)N[C@@H](Cc1ccc(O)cc1)C(=O)N[C@@H](CCC(N)=O)C(=O)N[C@@H](CCC(N)=O)C(=O)N1CCC[C@@H]1C(=O)N1CCC[C@H]1C(=O)N[C@@H](Cc1ccc(O)cc1)C(=O)N[C@@H](CCCNC(=N)N)C(=O)N[C@@H](CCCNC(N)=O)C(=O)N2) [Example 60]
4 | 1.8 nM |  | cyclo(QR[Cit]CRG[dP]RR[2Nal]CYQK[dP]P) (disulfide 4-11; SMILES N=C(N)NCCC[C@@H]1NC(=O)[C@@H]2CSSC[C@H](NC(=O)[C@H](Cc3ccc4ccccc4c3)NC(=O)[C@H](CCCNC(=N)N)NC(=O)[C@H](CCCNC(=N)N)NC(=O)[C@H]3CCCN3C(=O)CNC1=O)C(=O)N[C@@H](Cc1ccc(O)cc1)C(=O)N[C@@H](CCC(N)=O)C(=O)N[C@@H](CCCCN)C(=O)N1CCC[C@@H]1C(=O)N1CCC[C@H]1C(=O)N[C@@H](CCC(N)=O)C(=O)N[C@@H](CCCNC(=N)N)C(=O)N[C@@H](CCCNC(N)=O)C(=O)N2) [Example 62]
5 |  | 1000 nM | cyclo(YR[Cit]FRRR[2Nal]FY[Cit]K[dP]P) (SMILES N=C(N)NCCC[C@@H]1NC(=O)[C@H](CCCNC(=N)N)NC(=O)[C@H](Cc2ccccc2)NC(=O)[C@H](CCCNC(N)=O)NC(=O)[C@H](CCCNC(=N)N)NC(=O)[C@H](Cc2ccc(O)cc2)NC(=O)[C@@H]2CCCN2C(=O)[C@H]2CCCN2C(=O)[C@H](CCCCN)NC(=O)[C@H](CCCNC(N)=O)NC(=O)[C@H](Cc2ccc(O)cc2)NC(=O)[C@H](Cc2ccccc2)NC(=O)[C@H](Cc2ccc3ccccc3c2)NC(=O)[C@H](CCCNC(=N)N)NC1=O) [Example 3]
6 | 10.5 nM |  | cyclo(YR[Cit]CRG[dP]RR[2Nal]CYHK[dP]P) (disulfide 4-11; SMILES N=C(N)NCCC[C@@H]1NC(=O)[C@@H]2CSSC[C@H](NC(=O)[C@H](Cc3ccc4ccccc4c3)NC(=O)[C@H](CCCNC(=N)N)NC(=O)[C@H](CCCNC(=N)N)NC(=O)[C@H]3CCCN3C(=O)CNC1=O)C(=O)N[C@@H](Cc1ccc(O)cc1)C(=O)N[C@@H](Cc1c[nH]cn1)C(=O)N[C@@H](CCCCN)C(=O)N1CCC[C@@H]1C(=O)N1CCC[C@H]1C(=O)N[C@@H](Cc1ccc(O)cc1)C(=O)N[C@@H](CCCNC(=N)N)C(=O)N[C@@H](CCCNC(N)=O)C(=O)N2) [Example 58]
7 | 7.8 nM |  | cyclo(YR[Cit]CRG[dP]RR[2Nal]CYYK[dP]P) (disulfide 4-11; SMILES N=C(N)NCCC[C@@H]1NC(=O)[C@@H]2CSSC[C@H](NC(=O)[C@H](Cc3ccc4ccccc4c3)NC(=O)[C@H](CCCNC(=N)N)NC(=O)[C@H](CCCNC(=N)N)NC(=O)[C@H]3CCCN3C(=O)CNC1=O)C(=O)N[C@@H](Cc1ccc(O)cc1)C(=O)N[C@@H](Cc1ccc(O)cc1)C(=O)N[C@@H](CCCCN)C(=O)N1CCC[C@@H]1C(=O)N1CCC[C@H]1C(=O)N[C@@H](Cc1ccc(O)cc1)C(=O)N[C@@H](CCCNC(=N)N)C(=O)N[C@@H](CCCNC(N)=O)C(=O)N2) [Example 59]
8 | 3.3 nM |  | cyclo(HR[Cit]CRG[dP]RR[2Nal]CYQK[dP]P) (disulfide 4-11; SMILES N=C(N)NCCC[C@@H]1NC(=O)[C@@H]2CSSC[C@H](NC(=O)[C@H](Cc3ccc4ccccc4c3)NC(=O)[C@H](CCCNC(=N)N)NC(=O)[C@H](CCCNC(=N)N)NC(=O)[C@H]3CCCN3C(=O)CNC1=O)C(=O)N[C@@H](Cc1ccc(O)cc1)C(=O)N[C@@H](CCC(N)=O)C(=O)N[C@@H](CCCCN)C(=O)N1CCC[C@@H]1C(=O)N1CCC[C@H]1C(=O)N[C@@H](Cc1c[nH]cn1)C(=O)N[C@@H](CCCNC(=N)N)C(=O)N[C@@H](CCCNC(N)=O)C(=O)N2) [Example 64]
9 | 2.4 nM |  | cyclo(TR[Cit]CRG[dP]RR[2Nal]CYQK[dP]P) (disulfide 4-11; SMILES C[C@@H](O)[C@@H]1NC(=O)[C@@H]2CCCN2C(=O)[C@H]2CCCN2C(=O)[C@H](CCCCN)NC(=O)[C@H](CCC(N)=O)NC(=O)[C@H](Cc2ccc(O)cc2)NC(=O)[C@@H]2CSSC[C@H](NC(=O)[C@H](CCCNC(N)=O)NC(=O)[C@H](CCCNC(=N)N)NC1=O)C(=O)N[C@@H](CCCNC(=N)N)C(=O)NCC(=O)N1CCC[C@@H]1C(=O)N[C@@H](CCCNC(=N)N)C(=O)N[C@@H](CCCNC(=N)N)C(=O)N[C@@H](Cc1ccc3ccccc3c1)C(=O)N2) [Example 67]
10 | 6.3 nM |  | cyclo(YR[Cit]CRG[dP]WR[2Nal]CYQK[dP]P) (disulfide 4-11; SMILES N=C(N)NCCC[C@@H]1NC(=O)[C@@H]2CSSC[C@H](NC(=O)[C@H](Cc3ccc4ccccc4c3)NC(=O)[C@H](CCCNC(=N)N)NC(=O)[C@H](Cc3c[nH]c4ccccc34)NC(=O)[C@H]3CCCN3C(=O)CNC1=O)C(=O)N[C@@H](Cc1ccc(O)cc1)C(=O)N[C@@H](CCC(N)=O)C(=O)N[C@@H](CCCCN)C(=O)N1CCC[C@@H]1C(=O)N1CCC[C@H]1C(=O)N[C@@H](Cc1ccc(O)cc1)C(=O)N[C@@H](CCCNC(=N)N)C(=O)N[C@@H](CCCNC(N)=O)C(=O)N2) [Example 55]
11 | 4.1 nM |  | cyclo(YR[Cit]CRG[dP]RR[2Nal]CYQE[dP]P) (disulfide 4-11; SMILES N=C(N)NCCC[C@@H]1NC(=O)[C@@H]2CSSC[C@H](NC(=O)[C@H](Cc3ccc4ccccc4c3)NC(=O)[C@H](CCCNC(=N)N)NC(=O)[C@H](CCCNC(=N)N)NC(=O)[C@H]3CCCN3C(=O)CNC1=O)C(=O)N[C@@H](Cc1ccc(O)cc1)C(=O)N[C@@H](CCC(N)=O)C(=O)N[C@@H](CCC(=O)O)C(=O)N1CCC[C@@H]1C(=O)N1CCC[C@H]1C(=O)N[C@@H](Cc1ccc(O)cc1)C(=O)N[C@@H](CCCNC(=N)N)C(=O)N[C@@H](CCCNC(N)=O)C(=O)N2) [Example 61]
12 | 3.8 nM |  | cyclo(WR[Cit]CRG[dP]RR[2Nal]CYQK[dP]P) (disulfide 4-11; SMILES N=C(N)NCCC[C@@H]1NC(=O)[C@@H]2CSSC[C@H](NC(=O)[C@H](Cc3ccc4ccccc4c3)NC(=O)[C@H](CCCNC(=N)N)NC(=O)[C@H](CCCNC(=N)N)NC(=O)[C@H]3CCCN3C(=O)CNC1=O)C(=O)N[C@@H](Cc1ccc(O)cc1)C(=O)N[C@@H](CCC(N)=O)C(=O)N[C@@H](CCCCN)C(=O)N1CCC[C@@H]1C(=O)N1CCC[C@H]1C(=O)N[C@@H](Cc1c[nH]c3ccccc13)C(=O)N[C@@H](CCCNC(=N)N)C(=O)N[C@@H](CCCNC(N)=O)C(=O)N2) [Example 66]
13 | 4.2 nM |  | cyclo(YR[Cit]CRG[dP]RR[2Nal]CYRK[dP]P) (disulfide 4-11; SMILES N=C(N)NCCC[C@@H]1NC(=O)[C@@H]2CSSC[C@H](NC(=O)[C@H](Cc3ccc4ccccc4c3)NC(=O)[C@H](CCCNC(=N)N)NC(=O)[C@H](CCCNC(=N)N)NC(=O)[C@H]3CCCN3C(=O)CNC1=O)C(=O)N[C@@H](Cc1ccc(O)cc1)C(=O)N[C@@H](CCCNC(=N)N)C(=O)N[C@@H](CCCCN)C(=O)N1CCC[C@@H]1C(=O)N1CCC[C@H]1C(=O)N[C@@H](Cc1ccc(O)cc1)C(=O)N[C@@H](CCCNC(=N)N)C(=O)N[C@@H](CCCNC(N)=O)C(=O)N2) [Example 57]
14 | 2 nM |  | cyclo(RR[Cit]CRG[dP]RR[2Nal]CYQK[dP]P) (disulfide 4-11; SMILES N=C(N)NCCC[C@@H]1NC(=O)[C@@H]2CSSC[C@H](NC(=O)[C@H](Cc3ccc4ccccc4c3)NC(=O)[C@H](CCCNC(=N)N)NC(=O)[C@H](CCCNC(=N)N)NC(=O)[C@H]3CCCN3C(=O)CNC1=O)C(=O)N[C@@H](Cc1ccc(O)cc1)C(=O)N[C@@H](CCC(N)=O)C(=O)N[C@@H](CCCCN)C(=O)N1CCC[C@@H]1C(=O)N1CCC[C@H]1C(=O)N[C@@H](CCCNC(=N)N)C(=O)N[C@@H](CCCNC(=N)N)C(=O)N[C@@H](CCCNC(N)=O)C(=O)N2) [Example 63]
